T1: acylglycerol kinase (AGK) (human, UniProt Q53H12 1-422)
T1 sequence (looked up): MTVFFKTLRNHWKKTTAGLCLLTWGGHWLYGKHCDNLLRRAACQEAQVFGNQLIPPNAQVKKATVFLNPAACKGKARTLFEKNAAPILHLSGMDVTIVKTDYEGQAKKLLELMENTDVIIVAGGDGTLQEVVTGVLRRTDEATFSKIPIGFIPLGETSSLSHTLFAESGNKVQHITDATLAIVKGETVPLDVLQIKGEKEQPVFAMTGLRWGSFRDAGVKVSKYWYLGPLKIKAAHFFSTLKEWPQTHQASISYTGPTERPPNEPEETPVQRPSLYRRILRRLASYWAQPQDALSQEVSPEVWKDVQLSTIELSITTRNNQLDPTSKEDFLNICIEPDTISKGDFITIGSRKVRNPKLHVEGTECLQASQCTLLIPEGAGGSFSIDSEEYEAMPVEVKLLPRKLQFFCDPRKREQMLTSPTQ

B1: Tim29 (natural protein, human, UniProt Q9BSF4 32-260, looked up)
chain: GSWARALLRDYAEACRDASAEARARPGRAAVYVGLLGGAAACFTLAPSEGAFEEALLEASGTLLLLAPATRNRESEAFVQRLLWLRGRGRLRYVNLGLCSLVYEAPFDAQASLYQARCRYLQPRWTDFPGRVLDVGFVGRWWVLGAWMRDCDINDDEFLHLPAHLRVVGPQQLHSETNERLFDEKYKPVVLTDDQVDQALWEEQVLQKEKKDRLALSQAHSLVQAEAPR
B2: Tim22 (natural protein, human, UniProt Q9Y584 1-194, looked up)
chain: MAAAAPNAGGSAPETAGSAEAPLQYSLLLQYLVGDKRQPRLLEPGSLGGIPSPAKSEEQKMIEKAMESCAFKAALACVGGFVLGGAFGVFTAGIDTNVGFDPKDPYRTPTAKEVLKDMGQRGMSYAKNFAIVGAMFSCTECLIESYRGTSDWKNSVISGCITGGAIGFRAGLKAGAIGCGGFAAFSAAIDYYLR
B3: Tim10b (natural protein, human, UniProt Q9Y5J6 1-103, looked up)
chain: MERQQQQQQQLRNLRDFLLVYNRMTELCFQRCVPSLHHRALDAEEEACLHSCAGKLIHSNHRLMAAYVQLMPALVQRRIADYEAASAVPGVAAEQPGVSPSGS
B4: Tim10a (natural protein, human, UniProt P62072 1-90, looked up)
chain: MDPLRAQQLAAELEVEMMADMYNRMTSACHRKCVPPHYKEAELSKGESVCLDRCVSKYLDIHERMGKKLTELSMQDEELMKRVQQSSGPA

Tests used:
Assay in all cases: cryo-EM structure
Tim22 = molecular target: B2
Tim29 = molecular target: B1
[1] = molecular target: T1, acylglycerol kinase (AGK)
Tim10a = molecular target: B4
Tim10b = molecular target: B3

Row | binding result (Tim22) | binding result (Tim29) | binding result [1] | stoichiometry N (Tim10a) | binding result (Tim10b) | Binder
1 | binds | binds | binds | 1 Tim9:Tim10a (3:3 in the hexamer) | binds | Tim9 (natural protein, human, UniProt Q9Y5J7 1-89, looked up) MAAQIPESDQIKQFKEFLGTYNKLTETCFLDCVKDFTTREVKPEETTCSEHCLQKYLKMTQRISMRFQEYHIQQNEALAAKAGLLGQPR
2 |  |  | binds |  |  | B1
3 |  | binds |  |  |  | B2
4 |  | binds | binds |  |  | B3
5 | binds | binds | binds |  | binds | B4

From publication doi:10.1101/869289 (bioRxiv, 2019)
